# Measurements as given in publication PMC7081908.
# “And” between values parts separate entries of the source, which are not always exact repeats. Equal values may be shown once.
# Target: IgG-CD4 protein (fusion protein of human CD4 domains 1 and 2 with human IgG1 Fc at the C terminus) (human)
# Assay: BLI; Octet QKe; IgG-CD4 loaded onto protein G sensors at 20 ug/ml in ForteBio kinetics buffer; serial dilutions of gp120 (600 nM to 0.4 nM) in solution; Kd = koff/kon, 1:1 fitting model; two GMP lots of each gp120
row,Substance,Kd
1,"GMP-grade gp120 protein, HIV-1 clade AE consensus",24.6 nM and 18.4 nM
2,"GMP-grade gp120 protein, HIV-1 clade B isolate JRFL (natural protein)",7.44 nM and 4.87 nM
3,"GMP-grade gp120 protein, HIV-1 clade C isolate 93MW965.26 (natural protein)",157 nM and 115 nM
